Reference: PMC10247859, “Replisome-cohesin interactions provided by the Tof1-Csm3 and Mrc1 cohesion establishment factors” (Chromosoma, 2023)

Columns and labels:
Scc3 = target: T1, Scc3 (S. cerevisiae (budding yeast), UniProt P40541 1-1150); experiment: cross-linking; CLMS with sulfo-SDA; cohesin, Tof1-Csm3 and Chl1 with or without Mrc1 at 300-350 nM, 30 °C 5 min, cross-linker 2 h at 4 °C, UV 365 nm; LC-MS/MS, 1% FDR at residue-pair level; two samples merged; conditions: both partners purified
T1 construct: Scc3, budding yeast; the Scc3 chain of m1; Stood in the cross-linking sample as a chain of cohesin; source: purified as part of cohesin, as previously described (Minamino et al. 2018)
T1 sequence (looked up): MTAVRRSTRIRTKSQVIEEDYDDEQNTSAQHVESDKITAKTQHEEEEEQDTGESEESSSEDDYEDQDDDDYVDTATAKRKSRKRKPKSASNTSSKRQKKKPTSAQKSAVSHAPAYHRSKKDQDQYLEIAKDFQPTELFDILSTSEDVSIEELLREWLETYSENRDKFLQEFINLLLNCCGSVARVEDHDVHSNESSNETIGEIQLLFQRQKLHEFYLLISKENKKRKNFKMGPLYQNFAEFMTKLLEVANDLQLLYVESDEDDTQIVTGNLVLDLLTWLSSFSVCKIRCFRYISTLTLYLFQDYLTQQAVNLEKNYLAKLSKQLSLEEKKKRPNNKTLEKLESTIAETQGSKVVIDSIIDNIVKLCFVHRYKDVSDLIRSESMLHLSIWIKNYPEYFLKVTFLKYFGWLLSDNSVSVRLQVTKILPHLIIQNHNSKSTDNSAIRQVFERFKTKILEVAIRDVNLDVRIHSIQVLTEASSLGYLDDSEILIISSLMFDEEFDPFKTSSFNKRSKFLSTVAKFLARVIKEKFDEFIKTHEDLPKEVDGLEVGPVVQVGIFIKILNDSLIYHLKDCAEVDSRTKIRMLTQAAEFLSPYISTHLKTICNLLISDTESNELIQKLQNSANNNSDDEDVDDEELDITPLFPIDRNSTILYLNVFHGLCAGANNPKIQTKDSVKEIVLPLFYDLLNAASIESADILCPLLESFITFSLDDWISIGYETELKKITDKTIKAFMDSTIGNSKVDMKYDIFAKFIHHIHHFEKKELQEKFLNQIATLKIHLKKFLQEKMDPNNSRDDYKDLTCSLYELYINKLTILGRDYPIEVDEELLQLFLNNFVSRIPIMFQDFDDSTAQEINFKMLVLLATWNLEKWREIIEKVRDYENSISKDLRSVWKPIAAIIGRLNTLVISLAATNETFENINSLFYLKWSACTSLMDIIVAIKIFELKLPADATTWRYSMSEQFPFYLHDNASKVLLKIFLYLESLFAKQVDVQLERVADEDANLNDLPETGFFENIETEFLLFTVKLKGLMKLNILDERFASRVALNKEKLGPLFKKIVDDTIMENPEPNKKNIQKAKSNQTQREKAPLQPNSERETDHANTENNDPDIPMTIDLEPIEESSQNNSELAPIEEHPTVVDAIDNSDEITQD

Smc1 = target: T2, Smc1 (S. cerevisiae (budding yeast), UniProt P32908 1-1225); experiment: as above; conditions: both partners purified
T2 construct: Smc1, budding yeast; the Smc1 chain of m1; Stood in the cross-linking sample as a chain of cohesin; source: purified as part of cohesin, as previously described (Minamino et al. 2018)
T2 sequence (looked up): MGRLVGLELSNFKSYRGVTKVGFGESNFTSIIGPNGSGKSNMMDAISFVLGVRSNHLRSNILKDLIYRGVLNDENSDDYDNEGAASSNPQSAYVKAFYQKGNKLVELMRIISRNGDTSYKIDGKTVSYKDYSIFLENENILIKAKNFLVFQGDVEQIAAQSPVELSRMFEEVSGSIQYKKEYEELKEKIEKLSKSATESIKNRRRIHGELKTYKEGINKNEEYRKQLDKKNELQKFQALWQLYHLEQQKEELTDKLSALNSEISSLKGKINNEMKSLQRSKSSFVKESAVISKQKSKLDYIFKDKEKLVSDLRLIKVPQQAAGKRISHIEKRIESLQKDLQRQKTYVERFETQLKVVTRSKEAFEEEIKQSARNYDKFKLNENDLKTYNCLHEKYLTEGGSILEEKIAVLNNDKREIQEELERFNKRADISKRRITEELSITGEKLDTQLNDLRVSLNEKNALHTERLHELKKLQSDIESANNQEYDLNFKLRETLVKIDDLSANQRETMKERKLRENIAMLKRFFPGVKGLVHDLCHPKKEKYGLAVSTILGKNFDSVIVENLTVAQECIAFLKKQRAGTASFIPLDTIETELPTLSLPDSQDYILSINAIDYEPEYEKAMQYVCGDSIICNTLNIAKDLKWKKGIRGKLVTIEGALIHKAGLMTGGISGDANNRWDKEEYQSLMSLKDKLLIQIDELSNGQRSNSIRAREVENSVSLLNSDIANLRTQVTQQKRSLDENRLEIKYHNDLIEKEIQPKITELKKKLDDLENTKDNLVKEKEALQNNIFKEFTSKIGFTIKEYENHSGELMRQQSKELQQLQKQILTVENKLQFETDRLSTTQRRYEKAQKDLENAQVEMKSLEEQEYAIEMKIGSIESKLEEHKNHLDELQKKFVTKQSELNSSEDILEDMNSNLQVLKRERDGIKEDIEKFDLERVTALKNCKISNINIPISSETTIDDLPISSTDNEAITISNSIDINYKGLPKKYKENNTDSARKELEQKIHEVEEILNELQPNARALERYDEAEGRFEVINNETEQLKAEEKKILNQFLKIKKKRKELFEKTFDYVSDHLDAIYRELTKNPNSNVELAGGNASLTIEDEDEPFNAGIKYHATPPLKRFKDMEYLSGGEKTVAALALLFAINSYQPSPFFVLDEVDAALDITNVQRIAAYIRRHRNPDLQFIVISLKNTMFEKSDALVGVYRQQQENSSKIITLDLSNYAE

binding result (Scc3): binds
binding result (Smc1): binds
B1: Mrc1 (natural protein, S. cerevisiae (budding yeast), UniProt P25588 1-1096, looked up)
chain: MDDALHALSSLTAKKRTTTYKKVAVPILDENDNTNGNGPNDIDNPPELTGNGFLFANATLNRVKNRLEGKKAPEQNHNNGKDRSENSLPTQLISNLYDGGEELEKSEVKDNSYSEKNVSSSFTQTQRIPVSIQQDKVFNVPIHSVNDGKPTQLIKEDGLVNETSQALKTPLTTGRPGATQRIDSSGATSQTQPIKSIEPQSQIITTSSNHSNALSPKIPIIPTELIGTSPLFQSIQNRGPDTQMDVPPQTAHDEDKTQAIGIPQATHQEQKTQIDTVAQTLQDEVPHTLKIREIQSELASEDSKREKARNVEYKKPQKPIPTKKFFSKESFLADFDDSSSNEDDDIKLENAHPKPVQNDDELHENKSVELNLTDETRINEKRVPLLSSYANNLKREIDSSKCITLDLDSDSDEYGDDDMDSIKLSKDESVLPISQLSKATILNLKARLSKQNQKLSQRPNKSKDPKVDHNVLLNTLRKASRKQILDHQKEVIETKGLKLEDMAKEKEIVENLLEQEILRNKRIRQKEKRREKLEENDFQLNAHDSGSDSGSESSGFALSGNEIADYESSGSENDNRRESDSEKEDDEIILKQKKSHHVKHIINESDSDTEVEAKPKEKADESLPKRIAINLGHYGDNIGEDTDKFQETNVLDTQNIEEVMAERNTIENEVKDDVYVNEEADEAIRRQLIDKEKLQLKQKEKEHEAKIKELKKRGVTNFFEMEAEESEDEWHGIGGADGEGSDDYDSDLEKMIDDYSKNNFNPHEIREMLAAENKEMDIKMINKILYDIKNGGFRNKRAKNSLELELSDDDEDDVLQQYRLKRRELMRKRRLEIGDDAKLVKNPKSSAFFESMVEDIIEYKNPFGAEEEYNLDITSTATDLDTQDNSINVGDNTGNNEQKPVDQKNKKVIISEDFVQKSLSFLKSNNYEDFETDKELSRIQHGNDEAIEDLYTLKQNSSIKSFTNSQTDSTTSKTVNTIIDLEKRPEDEDEVENGDTSLVGVFKHPSIIKSFASRTDINDKFKEGNKTVKILKSYKTVGSSKASITYMGKTRKLIAPKRKTEGSHRYHHDHHNKKMKMKTKTKSNKLFESGQDSFDN
notes: Mrc1, budding yeast; also called Flag-tagged Mrc1; source: purified as previously described (Yeeles et al. 2017)
